Data from paper PMC5097169 (2016).
Each block holds one binder with its values, some of them ahead of it.

Columns and labels:
[1] = molecular target: Flag RbAp46 (Xenopus, recombinant) (Xenopus laevis (African clawed frog), UniProt Q8AVH1); assay: GST-CENP-A tail resin pull-down (bridged), Coomassie; inferred from RbAp46-dependent recovery of Hat1 on the immobilized GST-CENP-A N-terminal tail (1-50); no direct two-protein test
[2] = molecular target: T1, GST fusion to Xenopus laevis CENP-A amino terminus (amino acids 1–50) (Xenopus laevis (African clawed frog), UniProt Q569M3); assay: GST-tail resin pull-down, Coomassie
T1 chain: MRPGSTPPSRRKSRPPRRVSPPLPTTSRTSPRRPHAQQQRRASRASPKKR

binding result [1]: binds
B1: Flag Hat1 (Xenopus, recombinant) (protein)
chain: MEKKLAEYKCNTNEAIQLKLVRFPEDIEDESMTFNPEYSHQIFGDEEVAFGYKGLKILLYYSAGNLSTMFRVQYSSKVNDKFDLVQPDDVENKIHELIPAGFCSGTDDFITLLEKEVNFKPFGTIVHTYTVHNEDAGEDISYQIYKADMTSPGFREYHERLQTFMMWFIETASYIDVDDEKWDYFLVFEKYNKDGATLFATVGYMTVYNYYVYPDKTRPRVSQMLVLPPFQGEGHGAQLMETVHRYYVSAPNILDITAEDPSENFVRLRDFVLVKLCQNLPCFSPEKLLCGFSKEMVTEAQEKLKINKKHARRVYEILRLRATDMSDPEKSKAYRLDVKKRLVGPYKKNQREMAKMQQCLRPEELTNQMNQIDLNTQHEQLEESYQQLVEEYRRIVERLAQA

binding result [2]: binds
B2: Flag RbAp46 (Xenopus, recombinant) (protein)
chain: MANKEMFEDTVEERVINEEYKIWKKNTPFLYDLVMTHALEWPSLTVQWLPDVTRPEGKDYALHWLVLGTHTSDEQNHLVVARVQVPNDDAQFDASHYDSEKGEFGGFGSVSGKIETEIKINHEGEVNRARYMPQNPCIIATKTPSADVLVFDYTKHPSKPDPSGECSPDLRLRGHQKEGYGLSWNSNLSGHLLSASDDHTVCLWDISAGPKEGKVVDAKAVFTGHSAVVEDVAWHLLHESLFGSVADDQKLMIWDTRSNTTSKPSHSVDAHTAEVNCLSFNPYSEFILATGSADKTVALWDLRNLKLKLHSFESHKDEIFQVHWSPHNETILASSGTDRRLNVWDLSKIGEEQSAEDAEDGPPELLFIHGGHTAKISDFSWNPNEPWVICSVSEDNIMQIWQMAENIYNDEEPDIPASELEAQGS
